# B1: Protein phosphatase 1 regulatory subunit SDS22 (Saccharomyces cerevisiae), P36047 (parent)
# chain: MDKNSVNKDSEEKDERHKIEVVDDTNPDFITADSELTQDLPDDVEVIDLVHLKIKSLEDLNLYRFKNLKQLCLRQNLIESISEVEVLPHDKIVDLDFYDNKIKHISSNVNKLTKLTSLDLSFNKIKHIKNLENLTDLENLYFVQNSISKIENLSTLKSLKNLELGGNKVHSIEPDSFEGLSNLEEIWLGKNSIPRLINLHPLKNLKILSIQSNKLKKIENLEELTNLEELYLSHNFITKIEGLEKNLKLTTLDVTSNKITSLENLNHLSNLTDIWASFNKIDQSFESLGENLSALSRLETIYLEGNPIQLENKTSYRRKLTMNLPPSLQKIDATYIRG
# Variants of: B1
# Conditions: with pp12_yeast GLC7, P32598
# Chain of pp12_yeast GLC7, P32598 (P32598 whole entry): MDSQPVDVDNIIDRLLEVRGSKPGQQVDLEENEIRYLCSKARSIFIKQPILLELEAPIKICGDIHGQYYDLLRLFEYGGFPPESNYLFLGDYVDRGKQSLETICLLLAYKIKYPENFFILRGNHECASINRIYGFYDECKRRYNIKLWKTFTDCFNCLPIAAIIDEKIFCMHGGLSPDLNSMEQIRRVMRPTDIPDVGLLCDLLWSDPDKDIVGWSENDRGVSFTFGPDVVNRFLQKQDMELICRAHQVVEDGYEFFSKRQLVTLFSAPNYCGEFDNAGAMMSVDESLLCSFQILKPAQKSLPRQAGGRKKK
row,effect of a mutation on the interaction,Variant
1,decreasing interaction strength,MDKNSVNKDSEEKDERHKIEVVDDTNPDFITADSELTQDLPDDVEVIDLVHLKTKSLEDLNLYRFKNLKQLCLRQNLIESISEVEVLPHDKIVDLDFYDNKIKHISSNVNKLTKLTSLDLSFNKIKHIKNLENLTDLENLYFVQNSISKIENLSTLKSLKNLELGGNKVHSIEPDSFEGLSNLEEIWLGKNSTPRLINLHPLKNLKILSIQSNKLKKIENLEELTNLEELYLSHNFITKIEGLEKNLKLTTLDVTSNKITSLENLNHLSNLTDIWASFNKIDQSFESLGENLSALSRLETIYLEGNPIQLENKTSYRRKLTMNLPPSLQKIDATYIRG [I54T;I193T]
